# In patent US20260176319A1 (KALLYOPE, published 2026):
# Starred links: 1 amine or outer side, 2 acyl side, 3 side chain; linkers in the order of their positions; H or OH if unused. Non-standard residues stand in square brackets, D forms with d. *: point of attachment. Trp(7-F) = N[C@@H](Cc1c[nH]c2c(F)cccc12)C(=O)O; Trp(7-Me) = Cc1cccc2c(C[C@H](N)C(=O)O)c[nH]c12; C18 diacid = O=C(O)CCCCCCCCCCCCCCCCC(=O)*; γGlu = O=C(O)[C@H](CCC(=O)[*:2])N[*:1]; 2Nal = N[C@@H](Cc1ccc2ccccc2c1)C(=O)O; Palmitoyl = CCCCCCCCCCCCCCCC(=O)*; Nle = CCCC[C@H](N)C(=O)O; AEEA = NCCOCCOCC(=O)O; Sar = CNCC(=O)O
# B1: Peptide 104 (peptide)
# peptide: {C18 diacid}-[γGlu][AEEA][AEEA]GNH[Trp(7-Me)]AV[dA]HL[Nle][Sar]-NH2
# SMILES: CCCC[C@H](NC(=O)[C@H](CC(C)C)NC(=O)[C@H](Cc1c[nH]cn1)NC(=O)[C@@H](C)NC(=O)[C@@H](NC(=O)[C@H](C)NC(=O)[C@H](Cc1c[nH]c2c(C)cccc12)NC(=O)[C@H](Cc1c[nH]cn1)NC(=O)[C@H](CC(N)=O)NC(=O)CNC(=O)COCCOCCNC(=O)COCCOCCNC(=O)CC[C@H](NC(=O)CCCCCCCCCCCCCCCCC(=O)O)C(=O)O)C(C)C)C(=O)N(C)CC(N)=O
# B2: Peptide 108 (peptide)
# peptide: {C18 diacid}-[γGlu][AEEA][AEEA]GNHRAV[dA]HL[Nle]-NH2
# SMILES: CCCC[C@H](NC(=O)[C@H](CC(C)C)NC(=O)[C@H](Cc1c[nH]cn1)NC(=O)[C@@H](C)NC(=O)[C@@H](NC(=O)[C@H](C)NC(=O)[C@H](CCCNC(=N)N)NC(=O)[C@H](Cc1c[nH]cn1)NC(=O)[C@H](CC(N)=O)NC(=O)CNC(=O)COCCOCCNC(=O)COCCOCCNC(=O)CC[C@H](NC(=O)CCCCCCCCCCCCCCCCC(=O)O)C(=O)O)C(C)C)C(N)=O
# B3: Peptide 110 (peptide)
# peptide: {C18 diacid}-[γGlu][AEEA][AEEA][AEEA][AEEA]GNH[Trp(7-F)]AV[dA]HL[Nle]-NH2
# SMILES: CCCC[C@H](NC(=O)[C@H](CC(C)C)NC(=O)[C@H](Cc1c[nH]cn1)NC(=O)[C@@H](C)NC(=O)[C@@H](NC(=O)[C@H](C)NC(=O)[C@H](Cc1c[nH]c2c(F)cccc12)NC(=O)[C@H](Cc1c[nH]cn1)NC(=O)[C@H](CC(N)=O)NC(=O)CNC(=O)COCCOCCNC(=O)COCCOCCNC(=O)COCCOCCNC(=O)COCCOCCNC(=O)CC[C@H](NC(=O)CCCCCCCCCCCCCCCCC(=O)O)C(=O)O)C(C)C)C(N)=O
# B4: Peptide 107 (peptide)
# peptide: {C18 diacid}-[γGlu][AEEA][AEEA]GNHHAV[dA]HL[Nle]-NH2
# SMILES: CCCC[C@H](NC(=O)[C@H](CC(C)C)NC(=O)[C@H](Cc1c[nH]cn1)NC(=O)[C@@H](C)NC(=O)[C@@H](NC(=O)[C@H](C)NC(=O)[C@H](Cc1c[nH]cn1)NC(=O)[C@H](Cc1c[nH]cn1)NC(=O)[C@H](CC(N)=O)NC(=O)CNC(=O)COCCOCCNC(=O)COCCOCCNC(=O)CC[C@H](NC(=O)CCCCCCCCCCCCCCCCC(=O)O)C(=O)O)C(C)C)C(N)=O
# B5: Peptide 117 (peptide)
# peptide: {C18 diacid}-[γGlu][AEEA][AEEA][AEEA][AEEA]GRH[Trp(7-Me)]AV[dA]HL[Nle]-NH2
# SMILES: CCCC[C@H](NC(=O)[C@H](CC(C)C)NC(=O)[C@H](Cc1c[nH]cn1)NC(=O)[C@@H](C)NC(=O)[C@@H](NC(=O)[C@H](C)NC(=O)[C@H](Cc1c[nH]c2c(C)cccc12)NC(=O)[C@H](Cc1c[nH]cn1)NC(=O)[C@H](CCCNC(=N)N)NC(=O)CNC(=O)COCCOCCNC(=O)COCCOCCNC(=O)COCCOCCNC(=O)COCCOCCNC(=O)CC[C@H](NC(=O)CCCCCCCCCCCCCCCCC(=O)O)C(=O)O)C(C)C)C(N)=O
# B6: Peptide 105 (peptide)
# peptide: {C18 diacid}-[γGlu][AEEA][AEEA]GNH[2Nal]AV[dA]HL[Nle]-NH2
# SMILES: CCCC[C@H](NC(=O)[C@H](CC(C)C)NC(=O)[C@H](Cc1c[nH]cn1)NC(=O)[C@@H](C)NC(=O)[C@@H](NC(=O)[C@H](C)NC(=O)[C@H](Cc1ccc2ccccc2c1)NC(=O)[C@H](Cc1c[nH]cn1)NC(=O)[C@H](CC(N)=O)NC(=O)CNC(=O)COCCOCCNC(=O)COCCOCCNC(=O)CC[C@H](NC(=O)CCCCCCCCCCCCCCCCC(=O)O)C(=O)O)C(C)C)C(N)=O
# B7: Peptide 106 (peptide)
# peptide: {C18 diacid}-[γGlu][AEEA][AEEA]GNHW[dA]V[dA]HL[Nle]-NH2
# SMILES: CCCC[C@H](NC(=O)[C@H](CC(C)C)NC(=O)[C@H](Cc1c[nH]cn1)NC(=O)[C@@H](C)NC(=O)[C@@H](NC(=O)[C@@H](C)NC(=O)[C@H](Cc1c[nH]c2ccccc12)NC(=O)[C@H](Cc1c[nH]cn1)NC(=O)[C@H](CC(N)=O)NC(=O)CNC(=O)COCCOCCNC(=O)COCCOCCNC(=O)CC[C@H](NC(=O)CCCCCCCCCCCCCCCCC(=O)O)C(=O)O)C(C)C)C(N)=O
# B8: Peptide 114 (peptide)
# peptide: {C18 diacid}-[γGlu][AEEA][AEEA]GNHWAV[dA]HL[Nle]R-NH2
# SMILES: CCCC[C@H](NC(=O)[C@H](CC(C)C)NC(=O)[C@H](Cc1c[nH]cn1)NC(=O)[C@@H](C)NC(=O)[C@@H](NC(=O)[C@H](C)NC(=O)[C@H](Cc1c[nH]c2ccccc12)NC(=O)[C@H](Cc1c[nH]cn1)NC(=O)[C@H](CC(N)=O)NC(=O)CNC(=O)COCCOCCNC(=O)COCCOCCNC(=O)CC[C@H](NC(=O)CCCCCCCCCCCCCCCCC(=O)O)C(=O)O)C(C)C)C(=O)N[C@@H](CCCNC(=N)N)C(N)=O
# B9: Peptide 103 (peptide)
# peptide: {C18 diacid}-[γGlu][AEEA][AEEA][AEEA][AEEA]GNH[Trp(7-Me)]AV[dA]HL[Nle][Sar]-NH2
# SMILES: CCCC[C@H](NC(=O)[C@H](CC(C)C)NC(=O)[C@H](Cc1c[nH]cn1)NC(=O)[C@@H](C)NC(=O)[C@@H](NC(=O)[C@H](C)NC(=O)[C@H](Cc1c[nH]c2c(C)cccc12)NC(=O)[C@H](Cc1c[nH]cn1)NC(=O)[C@H](CC(N)=O)NC(=O)CNC(=O)COCCOCCNC(=O)COCCOCCNC(=O)COCCOCCNC(=O)COCCOCCNC(=O)CC[C@H](NC(=O)CCCCCCCCCCCCCCCCC(=O)O)C(=O)O)C(C)C)C(=O)N(C)CC(N)=O
# B10: Peptide 109 (peptide)
# peptide: {C18 diacid}-[γGlu][AEEA][AEEA][AEEA][AEEA]GRH[Trp(7-F)]AV[dA]HL[Nle]-NH2
# SMILES: CCCC[C@H](NC(=O)[C@H](CC(C)C)NC(=O)[C@H](Cc1c[nH]cn1)NC(=O)[C@@H](C)NC(=O)[C@@H](NC(=O)[C@H](C)NC(=O)[C@H](Cc1c[nH]c2c(F)cccc12)NC(=O)[C@H](Cc1c[nH]cn1)NC(=O)[C@H](CCCNC(=N)N)NC(=O)CNC(=O)COCCOCCNC(=O)COCCOCCNC(=O)COCCOCCNC(=O)COCCOCCNC(=O)CC[C@H](NC(=O)CCCCCCCCCCCCCCCCC(=O)O)C(=O)O)C(C)C)C(N)=O
# B11: Peptide 112 (peptide)
# peptide: Palmitoyl-[γGlu][AEEA][AEEA]GNH[Trp(7-Me)]AV[dA]HL[Nle][Sar]-NH2
# SMILES: CCCCCCCCCCCCCCCC(=O)N[C@@H](CCC(=O)NCCOCCOCC(=O)NCCOCCOCC(=O)NCC(=O)N[C@@H](CC(N)=O)C(=O)N[C@@H](Cc1c[nH]cn1)C(=O)N[C@@H](Cc1c[nH]c2c(C)cccc12)C(=O)N[C@@H](C)C(=O)N[C@H](C(=O)N[C@H](C)C(=O)N[C@@H](Cc1c[nH]cn1)C(=O)N[C@@H](CC(C)C)C(=O)N[C@@H](CCCC)C(=O)N(C)CC(N)=O)C(C)C)C(=O)O
# B12: Peptide 116 (peptide)
# peptide: {C18 diacid}-[γGlu][AEEA][AEEA]GRHHAV[dA]HL[Nle]-NH2
# SMILES: CCCC[C@H](NC(=O)[C@H](CC(C)C)NC(=O)[C@H](Cc1c[nH]cn1)NC(=O)[C@@H](C)NC(=O)[C@@H](NC(=O)[C@H](C)NC(=O)[C@H](Cc1c[nH]cn1)NC(=O)[C@H](Cc1c[nH]cn1)NC(=O)[C@H](CCCNC(=N)N)NC(=O)CNC(=O)COCCOCCNC(=O)COCCOCCNC(=O)CC[C@H](NC(=O)CCCCCCCCCCCCCCCCC(=O)O)C(=O)O)C(C)C)C(N)=O
# B13: Peptide 115 (peptide)
# peptide: {C18 diacid}-[γGlu][AEEA][AEEA]GNHW[dA]V[dA]HL[Nle][Sar]-NH2
# SMILES: CCCC[C@H](NC(=O)[C@H](CC(C)C)NC(=O)[C@H](Cc1c[nH]cn1)NC(=O)[C@@H](C)NC(=O)[C@@H](NC(=O)[C@@H](C)NC(=O)[C@H](Cc1c[nH]c2ccccc12)NC(=O)[C@H](Cc1c[nH]cn1)NC(=O)[C@H](CC(N)=O)NC(=O)CNC(=O)COCCOCCNC(=O)COCCOCCNC(=O)CC[C@H](NC(=O)CCCCCCCCCCCCCCCCC(=O)O)C(=O)O)C(C)C)C(=O)N(C)CC(N)=O
# B14: Peptide 118 (peptide)
# peptide: {C18 diacid}-[γGlu][AEEA][AEEA][AEEA][AEEA]GRHWAV[dA]HL[Nle]-NH2
# SMILES: CCCC[C@H](NC(=O)[C@H](CC(C)C)NC(=O)[C@H](Cc1c[nH]cn1)NC(=O)[C@@H](C)NC(=O)[C@@H](NC(=O)[C@H](C)NC(=O)[C@H](Cc1c[nH]c2ccccc12)NC(=O)[C@H](Cc1c[nH]cn1)NC(=O)[C@H](CCCNC(=N)N)NC(=O)CNC(=O)COCCOCCNC(=O)COCCOCCNC(=O)COCCOCCNC(=O)COCCOCCNC(=O)CC[C@H](NC(=O)CCCCCCCCCCCCCCCCC(=O)O)C(=O)O)C(C)C)C(N)=O
# Molecular target: human GRP receptor (human, UniProt P30550 1-384)
# Sequence (P30550 whole entry): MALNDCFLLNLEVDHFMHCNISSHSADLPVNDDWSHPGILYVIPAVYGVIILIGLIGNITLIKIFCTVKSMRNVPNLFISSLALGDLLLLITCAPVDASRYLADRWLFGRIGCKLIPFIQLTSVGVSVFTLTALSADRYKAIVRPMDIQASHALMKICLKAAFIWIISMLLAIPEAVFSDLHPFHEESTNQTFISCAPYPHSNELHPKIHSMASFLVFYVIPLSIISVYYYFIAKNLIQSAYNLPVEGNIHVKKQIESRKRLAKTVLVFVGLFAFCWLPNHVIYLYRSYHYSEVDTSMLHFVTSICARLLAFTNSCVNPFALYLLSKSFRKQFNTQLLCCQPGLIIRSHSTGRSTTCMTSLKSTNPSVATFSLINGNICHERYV
# Assay: cell-based or functional assay
row,Binder,hIP1 GRPR EC50 [µM]
1,B1,0.221
2,B2,> 10
3,B3,0.0124
4,B4,> 10
5,B5,0.0165
6,B6,0.232
7,EXXGNHWAVGHLM (Palmitoyl-D-γGlu-OEG-OEG-Gly-Asn-His-Trp-Ala-Val-Gly-His-Leu-Met-NH2) [Peptide 8],0.0017
8,B7,0.467
9,B8,> 10
10,B9,0.345
11,B10,0.0187
12,B11,> 10
13,B12,> 10
14,B13,> 10
15,B14,0.00802
